Experimental data reported in patent US20090111098A1, “REPORTER GENE ASSAY” (Shionogi & Co., Ltd., priority 2005, published 2009).

System: IL-4 regulatory element (STAT6)
Assay: Confirmation of transcriptional regulatory activity: IL-4 stimulation of reporter-transfected HeLa cells, HTRF ratio value
Format: cell-based, human
Settings: HeLa cells transfected with reporter plasmid; IL-4 0-100 ng/ml, 3-48 hours
Experimental: HeLa cells (cells deposited with ATCC) were dispersed at a density of 1.2×10^5 cells/ml in a medium (MEM medium containing 10% fetal bovine serum, 100 units/ml penicillin G, 100 μg/ml streptomycin) and then put in a volume of 100 μl per well on a 96-well tissue culture plate. After 24 hours, 20 μg of the reporter plasmid prepared in Example 1, and 60 μl FuGENE6 (Roche), were added to 2 ml FBS-free medium, then left at room temperature for 20 minutes, and added in a volume of 5 μl to each well, followed by incubation for 24 hours to transfect the cells with the reporter plasmid.
After the culture supernatant of the cells was removed, 100 μl of IL-4 diluted with a medium was added at final concentrations of 0, 4, 20 and 100 ng/ml respectively to the respective wells and cultured for 3, 6, 24 and 48 hours. After culture, a cell lysis buffer (Tris buffered physiological saline containing 1% Triton X-100, 5 mM EDTA and a protease inhibitor cocktail) was added in a volume of 100 μl to each well and left at room temperature for 1 hour. […] After the reaction was finished, the fluorescence intensity of each well at 665 nm was measured with a time-resolved fluorescence microplate reader (Rubystar, BMG Labtechnologies). The measurement value was expressed as the ratio value to the fluorescence intensity of cryptate at 620 nm.

B1: IL-4: cytokine that binds IL-4 receptors and activates JAK1/JAK3 and transcription factor STAT6 (protein, UniProt P05112 25-153, looked up)
Interleukin-4: HKCDITLQEIIKTLNSLTEQKTLCTELTVTDIFAASKNTTEKETFCRAATVLRQFYSHHEKDTRCLGATAQQFHRHKQLIRFLKRLDRNLWGLAGLNSCPVKEANQSTLENFLERLKTIMREKYSKCSS
increase in ratio value by stimulation with IL-4: about 10 fold
